Experimental data as given in patent US7244606B2, “Modified BACE” (Elan Pharmaceuticals, Inc., priority 2002, dated 2007).
Where “and” joins values, the source holds several entries; their conditions need not be identical. Identical values can stand only once.

Experiments:
polypeptide substrate = settings: assayed with a polypeptide substrate; cited from earlier work
[1] = test system: substrate S-1 (SEQ ID NO: 10); assay: BACE activity assay: cleavage of substrate S-1, HPLC tryptophan fluorescence peak area; type: biochemical; settings: for Activity Assays (Fluorescence Peak Area): 50 μl BACE sample containing 5–10 pmoles protein, 5 μl 1 mM substrate S-1, NaOAc pH 5.0, 1–2 hours at 37° C.
Experimental: The activity of P33K-BACE expressed in E. coli according the above Examples was compared to the activity of human BACE prepared as above without the P33K mutation, and to human BACE expressed in CHO cells.
To assay for BACE activity, the following activity assay conditions were utilized, unless specifically indicated otherwise: 20 μl 1 M sodium acetate (NaOAc), pH 5.0; 125 μl H2O; 50 μl BACE sample containing 5–10 pmoles protein; and 5 μl 1 mM substrate S-1 (SEQ ID NO: 10).
The 200 μl assay reaction was incubated for 1–2 hours at 37° C. Activity was expressed as fluorescence peak area generated by the liberation of a fluorescent (Tryptophan fluorescence) product upon cleavage of Substrate S-1 by recombinant BACE. The reaction was stopped with 100 μl of 4% TFA in H2O. In order to separate the cleavage products and thereby detect activity of recombinant BACE, 50 microliters of the reaction mixture was injected into a Hewlett Packard Model 1100 HPLC equipped with an Alltech Rocket™ column (7 mm i.d., ×53 mm length, C18, 3 μm) pre-equilibrated with 88% Reagent A (0.1% TFA in water), 12% Reagent B (0.1% TFA in acetonitrile). The flow rate over this column was 3 ml per minute.

Molecule | k(cat)/K(m), fold less than β-secretase (polypeptide substrate) | Activity Assays (Fluorescence Peak Area) [1] | activity compared with BACE ([1]; result in words)
β-secretase with the pro-segment intact: β-secretase with the pro-segment intact, from Shi et al., 2001 (protein, UniProt P56817 22-501, looked up, pro-form) pro-form: TQHGIRLPLRSGLGGAPLGLRLPRETDEEPEEPGRRGSFVEMVDNLRGKSGQGYYVEMTVGSPPQTLNILVDTGSSNFAVGAAPHPFLHRYYQRQLSSTYRDLRKGVYVPYTQGKWEGELGTDLVSIPHGPNVTVRANIAAITESDKFFINGSNWEGILGLAYAEIARPDDSLEPFFDSLVKQTHVPNLFSLQLCGAGFPLNQSEVLASVGGSMIIGGIDHSLYTGSLWYTPIRREWYYEVIIVRVEINGQDLKMDCKEYNYDKSIVDSGTTNLRLPKKVFEAAVKSIKAASSTEKFPDGFWLGEQLVCWQAGTTPWNIFPVISLYLMGEVTNQSFRITILPQQYLRPVEDVATSQDDCYKFAISQSSTGTVMGAVIMEGFYVVFDRARKRIGFAVSACHVHDEFRTAAVEGPFVTLDMEDCGYNIPQTDESTLMTIAYVMAAICALFMLPLCLMVCQWRCLRCLRQQHDDFADDISLLK | 2.3 fold |  | 
E. Coli BACE: human BACE prepared as above in E. coli without the P33K mutation (protein) MASMTGGQQMGRGSMAGVLPAHGTQHGIRLPLRSGLGGAPLGLRLPRETDEEPEEPGRRGSFVEMVDNLRGKSGQGYYVEMTVGSPPQTLNILVDTGSSNFAVGAAPHPFLHRYYQRQLSSTYRDLRKGVYVPYTQGKWEGELGTDLVSIPHGPNVTVRANIAAITESDKFFINGSNWEGILGLAYAEIARPDDSLEPFFDSLVKQTHVPNLFSLQLCGAGFPLNQSEVLASVGGSMIIGGIDHSLYTGSLWYTPIRREWYYEVIIVRVEINGQDLKMDCKEYNYDKSIVDSGTTNLRLPKKVFEAAVKSIKAASSTEKFPDGFWLGEQLVCWQAGTTPWNIFPVISLYLMGEVTNQSFRITILPQQYLRPVEDVATSQDDCYKFAISQSSTGTVMGAVIMEGFYVVFDRARKRIGFAVSACHVHDEFRTAAVEGPFVTLDMEDCGYNIPQTDES |  | 31.03 and 45.80 and 31.86 | 
CHO BACE: human BACE construct Asp2-2L-TM-His6 expressed in CHO cells; 50:50 mixture of two isoforms (control) (protein) TQHGIRLPLRSGLGGAPLGLRLPRETDEEPEEPGRRGSFVEMVDNLRGKSGQGYYVEMTVGSPPQTLNILVDTGSSNFAVGAAPHPFLHRYYQRQLSSTYRDLRKGVYVPYTQGKWEGELGTDLVSIPHGPNVTVRANIAAITESDKFFINGSNWEGILGLAYAEIARPDDSLEPFFDSLVKQTHVPNLFSLQLCGAGFPLNQSEVLASVGGSMIIGGIDHSLYTGSLWYTPIRREWYYEVIIVRVEINGQDLKMDCKEYNYDKSIVDSGTTNLRLPKKVFEAAVKSIKAASSTEKFPDGFWLGEQLVCWQAGTTPWNIFPVISLYLMGEVTNQSFRITILPQQYLRPVEDVATSQDDCYKFAISQSSTGTVMGAVIMEGFYVVFDRARKRIGFAVSACHVHDEFRTAAVEGPFVTLDMEDCGYNIPQTDESHHHHHH |  | 83.32 and 85.20 and 78.07 | 
E. Coli P33K-BACE: recombinant human BACE with proline to lysine mutation at position 33, terminated at S432, expressed in E. coli and refolded (protein, listed as Homo sapiens, Amino acid sequence of human BACE with P33K mutation.) TQHGIRLPLRSGLGGAPLGLRLPRETDEEPEEKGRRGSFVEMVDNLRGKSGQGYYVEMTVGSPPQTLNILVDTGSSNFAVGAAPHPFLHRYYQRQLSSTYRDLRKGVYVPYTQGKWEGELGTDLVSIPHGPNVTVRANIAAITESDKFFINGSNWEGILGLAYAEIARPDDSLEPFFDSLVKQTHVPNLFSLQLCGAGFPLNQSEVLASVGGSMIIGGIDHSLYTGSLWYTPIRREWYYEVIIVRVEINGQDLKMDCKEYNYDKSIVDSGTTNLRLPKKVFEAAVKSIKAASSTEKFPDGFWLGEQLVCWQAGTTPWNIFPVISLYLMGEVTNQSFRITILPQQYLRPVEDVATSQDDCYKFAISQSSTGTVMGAVIMEGFYVVFDRARKRIGFAVSACHVHDEFRTAAVEGPFVTLDMEDCGYNIPQTDES |  | 38.41 and 26.50 and 32.84 | essentially the same activity of BACE
